From patent publication US12202907B2, “Nucleic acids encoding and methods of producing proteins comprising antibody chains” (Innate Pharma, priority 2018, dated 2025)
Substitutions are numbered along the chain they refer to.

Columns and labels:
[1] = test system: cynomolgus CD39 expressing CHO cells (CHO-cyCD39); assay: Inhibition of the enzymatic activity of cellular CD39 in CHO-cyCD39; format: cell-based, cynomolgus (Macaca fascicularis); details: qualitative
Method: The inhibition of the CD39 enzymatic activity in CD39-expressing cells by antibodies was evaluated using Cell Titer GIo™ (Promega, reference G7571) that allows assessment of ATP hydrolysis through use of a reagent that generates a luminescent signal proportional to the amount of ATP present. The assay was thus designed to permit assessment of the inhibition of ATP hydrolyzed by CD39 in the cell culture supernatant. Briefly, 5×10^4 Ramos human lymphoma cells, 5×10^3 human CD39−, cynomolgus CD39—and mouse CD39− expressing CHO cells, were incubated 1 hour at 37° C. with anti-CD39 antibodies from 30 μg/ml to 5×10^−4 μg/ml. Cells were then incubated with 20 μM ATP for 1 additional hour at 37° C. Plates were centrifuged for 2 min at 400 g and 50 μl cell supernatant are transferred in a luminescence microplate (white wells). 50 μl CellTiter-Glo™ Reagent (CTG) was added to the supernatant and emitted light was quantified after a 5 min incubation in the dark using a Enspire™ luminometer. Anti-CD39 antibody efficacy was determined by comparing emitted light in presence of antibody with ATP alone (maximal light emission) and ATP together with cells (minimal light emission).

[2] = target: T1, CD39 mutants transfected in Hek-293T cells (Homo sapiens, UniProt P49961, E142K/M139A/R138A); assay: Epitope mapping: binding to CD39 mutants by flow cytometry; details: mutant 19: R138A, M139A, E142K
T1 construct: expressed in transfected cells; host or cells: HEK293T
T1 sequence (P49961 1-510 R138A/M139A/E142K): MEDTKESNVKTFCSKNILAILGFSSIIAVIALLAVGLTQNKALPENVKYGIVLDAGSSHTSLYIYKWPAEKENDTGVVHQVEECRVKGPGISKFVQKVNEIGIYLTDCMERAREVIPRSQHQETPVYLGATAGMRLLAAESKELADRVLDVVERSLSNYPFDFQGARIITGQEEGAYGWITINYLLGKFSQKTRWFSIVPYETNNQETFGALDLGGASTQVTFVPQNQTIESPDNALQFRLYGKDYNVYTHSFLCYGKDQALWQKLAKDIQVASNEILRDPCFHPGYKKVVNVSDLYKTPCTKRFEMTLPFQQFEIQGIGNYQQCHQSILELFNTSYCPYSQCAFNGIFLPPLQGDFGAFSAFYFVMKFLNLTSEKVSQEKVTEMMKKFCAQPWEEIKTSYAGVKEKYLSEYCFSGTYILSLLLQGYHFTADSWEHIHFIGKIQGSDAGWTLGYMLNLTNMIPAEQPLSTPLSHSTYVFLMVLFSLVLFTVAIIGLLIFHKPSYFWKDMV
Method: (§1) CD39 mutants were generated by PCR. The sequences amplified were run on agarose gel and purified using the Macherey Nagel PCR Clean-Up Gel Extraction kit (reference 740609). The purified PCR products generated for each mutant were then ligated into an expression vector, with the ClonTech InFusion system. The vectors containing the mutated sequences were prepared as Miniprep and sequenced. After sequencing, the vectors containing the mutated sequences were prepared as Midiprep using the Promega PureYield™ Plasmid Midiprep System. HEK293T cells were grown in DMEM medium (Invitrogen), transfected with vectors using Invitrogen's Lipofectamine 2000 and incubated at 37° C. in a CO2 incubator for 48 hours prior to testing for transgene expression. The targeted amino acid mutations in the table 1 below are shown using numbering of SEQ ID NO: 1.
(§2) In order to define the epitopes of anti-CD39 antibodies, we designed CD39 mutants defined by substitutions of amino acids exposed at the molecular surface over the surface of CD39.
(§3) Dose-ranges of I-394 (10-2.5-0.625-0.1563-0.0391-0.0098-0.0024-0.0006 μg/ml) are tested on the 20 generated mutants by flow cytometry. […] Mutant 5 contains amino acid substitutions at residues Q96, N99, E143 and R147. […]

[3] = target: T2, CD39 mutants transfected in Hek-293T cells (Homo sapiens, UniProt P49961, E143A/N99A/Q96A/R147E); assay: as above; details: mutant 5: Q96A, N99A, E143A, R147E
T2 construct: expressed in transfected cells; host or cells: HEK293T
T2 sequence (P49961 1-510 Q96A/N99A/E143A/R147E): T1 sequence (P49961 1-510 R138A/M139A/E142K) with Q96A, N99A, A138R, A139M, K142E, E143A, R147E
Method: as §1, §2, §3

[4] = test system: monocyte-derived DC (moDC); assay: Activation of dendritic cells in the presence of ATP; format: cell-based, human; details: ATP 0.125 mM, 0.25 mM or 0.5 mM; I-394 at 10 μg/ml
Method: Briefly, human monocytes were purified from human healthy blood and differentiated into MoDC in presence of GM-CSF and IL-4 during 6 days. […] In some cases, MoDC were preincubated for 1 hour in presence of CD39 inhibitor: […] (Tocris, 250 μM), CD73 inhibitor: APCP (Tocris 50 μM), anti-CD39 blocking antibody I-394 or BY40 (for BY40 see WO2009/095478), or anti-CD73 blocking antibodies. LPS (Invivogen, 10 ng/ml) was used as positive control. To assess resulting effect of ATP-mediated DC activation on CD4 T cells activation, ATP-activated DC were washed and then incubated with allogenic CD4 T cells (ratio 1 MoDC/4 T cells) for a mixed lymphocytes reaction (MLR) during 5 days. T cells activation and proliferation were analyzed through CD25 expression and Cell Trace Violet dilution by flow cytometry (FIG. 8).

With “I-394: anti-CD39 antibody, VH SEQ ID NO: 6, VL SEQ ID NO: 7, human IgG1 Fc with L234A/L235E/G237A/A330S/P331S” the “blocking CD39 enzymatic activity in CHO-cyCD39” value [1] was “blocks CD39 enzymatic activity”, the “binding to cells expressing mutant 19 of CD39” value [2] was “complete loss of binding” and the “binding to cells expressing mutant 5 of CD39” value [3] was “strongly reduced binding to mutant 5 (but with some residual binding to mutant 5)”. The “ATP-induced moDC activation (HLA-DR or CD83 expression)” value [4] was “permitted moDC activation”.
